Reference: PMC8396345

Columns and labels:
[1] = system: norovirus GII.4 Sydney VLP (VP1) (Norovirus GII.4 Sydney); assay: filter binding; details: FRA: 1 nM 32P-aptamer, 0-1500 nM VLP, 60 min, each aptamer's original selection buffer (M1, M6-2, SMV19, SMV21: PBS pH 7.4; others in Table S1, not in material)
[2] = system: norovirus GII.4 New Orleans VLP (VP1) (Norovirus GII.4 New Orleans); assay: filter binding; details: FRA: 1 nM 32P-aptamer, 0-1500 nM VLP, 60 min, each aptamer's original selection buffer (M1, M6-2, SMV19, SMV21: PBS pH 7.4; others in Table S1, not in material)
[3] = system: norovirus GI.7 VLP (VP1) (Norovirus GI.7); assay: filter binding; details: FRA: 1 nM 32P-aptamer, 0-1500 nM VLP, 60 min, each aptamer's original selection buffer (M1, M6-2, SMV19, SMV21: PBS pH 7.4; others in Table S1, not in material)
[4] = system: norovirus GII.3 VLP (VP1) (Norovirus GII.3); assay: filter binding; details: FRA: 1 nM 32P-aptamer, 0-1500 nM VLP, 60 min, each aptamer's original selection buffer (M1, M6-2, SMV19, SMV21: PBS pH 7.4; others in Table S1, not in material)
[5] = system: norovirus GII.2 VLP (VP1) (Norovirus GII.2); details: FRA: 1 nM 32P-aptamer, 0-1500 nM VLP, 60 min, each aptamer's original selection buffer (M1, M6-2, SMV19, SMV21: PBS pH 7.4; others in Table S1, not in material); cited from earlier work
[6] = system: norovirus P-domain (Norovirus GII.4); details: FRA: 1 nM 32P-aptamer, 0-1500 nM VLP, 60 min, each aptamer's original selection buffer (M1, M6-2, SMV19, SMV21: PBS pH 7.4; others in Table S1, not in material); cited from earlier work
[7] = system: norovirus P-domain (Norovirus GII.4); assay: filter binding; details: FRA: 1 nM 32P-aptamer, 0-1500 nM VLP, 60 min, each aptamer's original selection buffer (M1, M6-2, SMV19, SMV21: PBS pH 7.4; others in Table S1, not in material)

Work on “TGGGAAGAGGTCCGGTAAATGCAGGGTCAGCCCGGAGAG [M6-2]” yielded a Kd [1] of 1130 nM and a Kd [2] of 928 nM.
“GTCTGTAGTAGGGAGGATGGTCCGGGGCCCCGAGACGACGTTATCAGGC [Beier]” showed a Kd [1] of 71 nM, a Kd [3] of 63 nM and a Kd [2] of 105 nM. For the same sequence, the Kd [4] was 115 nM.
In the case of “CCATGTTTTGTAGGTGTAATAGGTCATGTTAGGGTTTCTG [SMV21]”, the Kd [5] is listed as 101 nM, the Kd [1] is listed as 1250 nM and the Kd [2] is listed as 1780 nM. For the same sequence, the Kd [4] was 464 nM.
Sequence “TGTTTATGGGGATAAACGTATCTAATTCGTGTACTAATCA [M1]” has a Kd [1] of 388 nM and a Kd [2] of 963 nM.
In the case of “GAAATTGGGTTCGGGTTTGGGTTGGGATTACTTAGCGATG [Buf-2]”, the Kd [6] is listed as 17 nM, the binding signal [7] is listed as 100% and the Kd [1] is listed as 241 nM. For the same sequence, the Kd [2] was 351 nM and the Kd [4] was 465 nM.
For “CACCAGTGTGTTGAGGTTTGAGCACACTGATAGAGTGTCA [SMV19]”, the Kd [5] is given as 191 nM and the Kd [2] is given as 9340 nM.
“GCTAGCGAATTCCGTACGAAGGGCGAATTCCACATTGGGCTGCAGCCCGGGGGATCC [AG3]” showed a Kd [1] of 313 nM and a Kd [2] of 1030 nM.
